Legend:
Details in all cases: 20 nM; 72 h
MCF10A [1] = assay: percent viability (nuclei count relative to siNT); higher = more viable cells
Procedure: (§1)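 After 72 h, cells were fixed and stained with Hoechst and anti-fibrillarin, and nucleoli per nucleus were counted with CellProfiler. Values are plate-adjusted percent effect for the one-nucleolus and 5+ nucleoli phenotypes, normalised to siNT (0%) and to the positive controls siNOL11 or siKIF11 (100%), as the mean of biological triplicates. Percent viability is the nuclei count relative to siNT.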

MCF10A [2] = assay: 5+ nucleoli phenotype percent effect (relative to siNT 0% and siKIF11 100%); higher = more cells with five or more nucleoli
Procedure: as §1

HeLa = assay: nucleolar rRNA biogenesis percent inhibition (5-EU; siNT 0%, siPOLR1A 100%); higher = stronger inhibition of nucleolar rRNA biogenesis
Procedure: (§2)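 Primary screen hits (microRNA mimics) were re-picked and rescreened for nucleolar number in MCF10A cells (hitpick validation; percent effect relative to the siNT and siNOL11/siKIF11 controls). A secondary screen measured nucleolar rRNA biogenesis inhibition: after 72 h of transfection at 20 nM, cells were labelled 1 h with 1 mM 5-EU and nucleolar 5-EU signal was quantified, normalised to siNT (0%) and siPOLR1A (100%). Means are over n=5 (MCF10A) or n=2 (RPE-1, HeLa) biological replicates.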

MCF10A [3] = assay: as above
Procedure: as §2

hTERT RPE-1 = assay: as above
Procedure: as §2

MCF10A [4] = assay: one-nucleolus phenotype percent effect, hitpick validation (relative to siNT 0% and siNOL11 100%); higher = more cells with one nucleolus
Procedure: as §2

MCF10A [5] = assay: 5+ nucleoli phenotype percent effect, hitpick validation (relative to siNT 0% and siKIF11 100%); higher = more cells with five or more nucleoli
Procedure: as §2

MCF10A [6] = assay: one-nucleolus phenotype percent effect (relative to siNT 0% and siNOL11 100%); higher = more cells with one nucleolus (ribosome biogenesis inhibition)
Procedure: as §1

Sequence	percent viability (MCF10A [1]) [%]	5+ nucleoli phenotype percent effect (MCF10A [2]) [%]	nucleolar rRNA biogenesis percent inhibition (HeLa) [%]	nucleolar rRNA biogenesis percent inhibition (MCF10A [3]) [%]	nucleolar rRNA biogenesis percent inhibition (hTERT RPE-1) [%]	one-nucleolus phenotype percent effect (MCF10A [4]) [%]	5+ nucleoli phenotype percent effect (MCF10A [5]) [%]	one-nucleolus phenotype percent effect (MCF10A [6]) [%]
AGAUCAGAAGGUGAUUGUGGCU [hsa-miR-383-5p]	14.2	-26.7	129	0.973	123	125	-5.3	68.7
AGCUUUUGGGAAUUCAGGUAGU [hsa-miR-3140-3p]	17.7	-25.9	76.4	6.44	33	159	-14.2	91.3
AGGCGGAGACUUGGGCAAUUG [hsa-miR-25-5p]	29.4	-48.5	86.7	75.3	45.2	182	-9.31	115
AGUUUUGCAGGUUUGCAUCCAGC [hsa-miR-19b-1-5p]	26.2	-41.5	92.7	30.7	-48.4	196	-19.8	76.9
CAAUCAGCAAGUAUACUGCCCU [hsa-miR-34a-3p]	25.6	-43.5	-6.79	70.2	113	127	1.68	83.5
CAGGUCGUCUUGCAGGGCUUCU [hsa-miR-431-3p]	35.3	-53.4	115	83.8	118	182	-15.2	84.4
CAUCUGGCAUCCGUCACACAGA [hsa-miR-3126-3p]	9.11	-5.56	4.46	22.1	50.7	105	-8.87	67
CGGCGGGGACGGCGAUUGGUC [hsa-miR-1908-5p]	40.6	-47.2	68.5	90.6	113	128	-7.82	93.7
CUCUUGAGGGAAGCACUUUCUGU [hsa-miR-526b-5p]	28.7	-54.5	81.5	130	75.9	81.9	-6.22	71.3
CUGCCAAUUCCAUAGGUCACAG [hsa-miR-192-3p]	62.7	-40.8	37.7	67.1	136	137	-12.3	70.5
CUUAUGCAAGAUUCCCUUCUAC [hsa-miR-491-3p]	15.5	-51.5	-3.33	63.6	-86.4	118	-10.1	73.6
GGCCAGCCACCAGGAGGGCUG [hsa-miR-3194-5p]	18.6	-36.9	-11.3	22.9	50.9	199	4.28	81.9
GUUCUCCCAACGUAAGCCCAGC [hsa-miR-629-3p]	38.5	238	55.5	82.1	70.8	-55.4	96.3	-34.6
UAAGGCACGCGGUGAAUGCC [hsa-miR-124-3p]	39.1	-14.4	91.7	61.9	28.2	139	18.1	70.4
UAUGGCACUGGUAGAAUUCACU [hsa-miR-183-5p]	16.2	-24	21.8	33.5	204	101	-0.696	81
UCUCUGGGCCUGUGUCUUAGGC [hsa-miR-330-5p]	17.8	-22.3	66.1	65.2	109	99.9	1.29	67.1
UGAAGGUCUACUGUGUGCCAGG [hsa-miR-493-3p]	28	-34.3	-1.09	69.3	108	126	4.11	73
UGCCUGUCUACACUUGCUGUGC [hsa-miR-214-5p]	31.1	-42.1	32	-8.48	87.1	122	-11.5	93.5
UGGCAGUGUCUUAGCUGGUUGU [hsa-miR-34a-5p]	11.9	-14.4	37.7	72.2	52.6	28.9	19.4	11.2
UGGUUCUAGACUUGCCAACUA [hsa-miR-182-3p]	17.5	-35.8	9.57	64.6	173	165	-12.4	97.2
UGUCCUCUAGGGCCUGCAGUCU [hsa-miR-3909]	25.5	-34.2	74.5	42.9	66.8	196	-15.4	93.1
